Measured values published in patent EP1018344A2.

target: HLA-A2.1 (as the chimeric class I molecule A2.1/K^b on Jurkat A2.1/K^b cells) (human; mouse), A*02:0; assay: cell-based or functional assay

Inhibition of release of serine esterase from CTL line 219, > 25%:
peptide 799.02 (HBenv194-213) (from UniProt P03138 194-213), peptide 799.04 (HBenv234-253) (from UniProt P03138 234-253), peptide 799.05 (HBenv246-265) (from UniProt P03138 246-265), peptide 799.08 (HBenv309-328), peptide 799.09 (HBenv329-348), peptide 799.10 (HBenv349-368), peptide 800.04 (HBenv47-63) (from UniProt P03138 47-63), peptide 800.05 (HBenv63-77) (from UniProt P03138 63-77), peptide 801.02 (HBenv141-157) (from UniProt P03138 141-157), peptide 802.01 (HBc11-27) (from UniProt P03146 11-27), peptide 802.03 (HBc91-110), peptide 802.04 (HBc111-125) (from UniProt P03146 111-125), peptide 802.06 (HBc162-176) (from UniProt P03146 162-176)
